Laboratory results reported in publication PMC4671958, “Structure of the Helicase Domain of DNA Polymerase Theta Reveals a Possible Role in the Microhomology-Mediated End-Joining Pathway”.

Target: Polθ-HLD (DNA polymerase theta helicase domain) (Homo sapiens, UniProt O75417 67-894)
Experiment: fluorescence polarization; low salt, 50 mM NaCl; stated as single digit nM; 10 mM HEPES pH 7.5, 150 mM NaCl (low salt: 50 mM NaCl), 10 nM probe; temperature not stated in material
Details: protein: recombinant; tags: His6 tag cleaved with TEV; chain copies: 4; label: 5' fluorescein (FITC); single strand

Chain of Polθ-HLD (DNA polymerase theta helicase domain) (O75417 67-894): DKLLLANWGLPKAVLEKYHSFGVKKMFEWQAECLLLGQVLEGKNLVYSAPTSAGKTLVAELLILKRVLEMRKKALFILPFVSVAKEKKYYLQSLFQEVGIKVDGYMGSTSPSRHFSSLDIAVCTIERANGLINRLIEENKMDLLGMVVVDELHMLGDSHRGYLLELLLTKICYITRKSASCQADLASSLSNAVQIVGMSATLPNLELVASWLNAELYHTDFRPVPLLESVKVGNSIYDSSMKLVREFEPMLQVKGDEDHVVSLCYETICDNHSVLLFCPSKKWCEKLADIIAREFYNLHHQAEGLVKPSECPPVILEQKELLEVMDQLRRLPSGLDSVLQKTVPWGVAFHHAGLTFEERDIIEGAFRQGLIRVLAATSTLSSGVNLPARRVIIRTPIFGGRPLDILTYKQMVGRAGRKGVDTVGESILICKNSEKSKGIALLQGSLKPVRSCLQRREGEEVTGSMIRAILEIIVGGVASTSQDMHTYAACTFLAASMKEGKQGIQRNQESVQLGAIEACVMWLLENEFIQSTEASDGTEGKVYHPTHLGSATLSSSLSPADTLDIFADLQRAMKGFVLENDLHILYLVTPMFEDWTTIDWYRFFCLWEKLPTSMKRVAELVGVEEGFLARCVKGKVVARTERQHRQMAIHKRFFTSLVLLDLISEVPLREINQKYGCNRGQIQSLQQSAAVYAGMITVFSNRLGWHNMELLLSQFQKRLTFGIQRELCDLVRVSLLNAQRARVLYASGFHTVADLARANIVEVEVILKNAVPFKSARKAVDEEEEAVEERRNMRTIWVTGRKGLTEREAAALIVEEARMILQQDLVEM

B1: Single stranded (POLQ-1) (ssDNA)
DNA: ATCGATAGTCGGATCCTCTAGACAGCTCCATGTAGCAAGGCACTGGTAGAATTCGGCAGCGTC
Q: Which Kd does the source give for B1 here?
A: < 10 nM
